Biological target: c-Met on MKN45 gastric cancer cells / Caki-1 kidney cancer cells (human) (UniProt P08581)
Assay: cell-based or functional assay

UniProt P08581, sequence (P08581 25-1390): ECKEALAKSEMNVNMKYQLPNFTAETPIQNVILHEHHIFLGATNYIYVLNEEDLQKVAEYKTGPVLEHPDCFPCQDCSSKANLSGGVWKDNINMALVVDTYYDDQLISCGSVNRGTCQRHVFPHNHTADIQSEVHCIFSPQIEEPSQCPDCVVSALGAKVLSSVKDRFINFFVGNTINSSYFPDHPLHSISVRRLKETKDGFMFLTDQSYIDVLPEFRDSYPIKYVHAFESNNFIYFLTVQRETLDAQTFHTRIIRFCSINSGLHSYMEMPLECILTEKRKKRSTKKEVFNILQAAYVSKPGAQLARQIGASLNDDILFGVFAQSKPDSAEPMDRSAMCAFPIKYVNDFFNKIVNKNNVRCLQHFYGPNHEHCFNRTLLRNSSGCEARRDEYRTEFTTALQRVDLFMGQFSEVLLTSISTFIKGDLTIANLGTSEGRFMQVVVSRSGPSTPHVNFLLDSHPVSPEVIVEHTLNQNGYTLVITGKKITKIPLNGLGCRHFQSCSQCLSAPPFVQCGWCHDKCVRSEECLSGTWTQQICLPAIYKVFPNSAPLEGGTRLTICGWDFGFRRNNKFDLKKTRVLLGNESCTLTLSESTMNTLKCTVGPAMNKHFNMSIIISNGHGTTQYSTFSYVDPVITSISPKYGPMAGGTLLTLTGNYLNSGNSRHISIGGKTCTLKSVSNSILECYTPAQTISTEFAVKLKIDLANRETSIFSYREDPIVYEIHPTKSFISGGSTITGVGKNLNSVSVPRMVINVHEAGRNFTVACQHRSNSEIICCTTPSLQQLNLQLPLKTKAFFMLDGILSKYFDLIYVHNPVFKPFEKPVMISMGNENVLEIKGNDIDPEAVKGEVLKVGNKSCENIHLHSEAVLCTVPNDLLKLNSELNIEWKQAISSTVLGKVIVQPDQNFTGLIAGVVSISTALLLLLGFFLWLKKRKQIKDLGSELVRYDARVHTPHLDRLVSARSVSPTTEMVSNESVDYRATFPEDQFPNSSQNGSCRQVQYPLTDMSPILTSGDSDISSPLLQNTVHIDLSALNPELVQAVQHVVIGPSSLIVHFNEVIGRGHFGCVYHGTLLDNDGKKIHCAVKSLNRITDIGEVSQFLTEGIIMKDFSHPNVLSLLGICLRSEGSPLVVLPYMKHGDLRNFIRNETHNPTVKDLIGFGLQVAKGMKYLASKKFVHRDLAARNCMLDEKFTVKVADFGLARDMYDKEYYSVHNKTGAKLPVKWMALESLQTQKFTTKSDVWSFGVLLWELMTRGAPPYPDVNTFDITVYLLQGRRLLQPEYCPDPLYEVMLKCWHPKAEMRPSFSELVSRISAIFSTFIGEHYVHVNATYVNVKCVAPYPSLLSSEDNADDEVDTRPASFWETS

Akt phosphorylation (Ser473), phospho-AKT1 sandwich ELISA, Caki-1 cells (reference set to 100%): 100%
Substance: 5D5 (antibody)

Reference: KR20150000795A
